Results published in patent publication US20110118131A1 (published 2011).
Numbering of substitutions follows the chain as printed. Numbers in names are those of the source.

Experiments:
IL-1β = IL-1β (UniProt P01584 117-269); experiment: Biacore, Fab periplasmic extract on IL-1β
Ep-CAM = molecular target: T1, Ep-CAM (UniProt P16422 24-265, limits assumed); experiment: Biacore, Fab periplasmic extract
T1 construct: Amine coupled to a CM5 chip in the Biacore assays
T1 sequence (looked up): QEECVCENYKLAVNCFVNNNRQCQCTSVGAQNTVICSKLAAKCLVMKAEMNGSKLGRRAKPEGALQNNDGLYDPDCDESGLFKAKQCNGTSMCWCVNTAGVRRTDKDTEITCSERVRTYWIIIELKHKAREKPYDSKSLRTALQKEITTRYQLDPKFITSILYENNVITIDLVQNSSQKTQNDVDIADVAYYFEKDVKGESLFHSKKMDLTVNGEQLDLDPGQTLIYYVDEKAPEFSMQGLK

B1: XPA23 light chain S53T (Fab, V domains shown)
VH: EVQLLESGGGLVQPGGSLRLSCAASGFTFSKYFMFWVRQAPGKGLEWVSVISPSGGMTRYADSVKGRFTISRDNSKNTLYLQMNSLRAEDTAVYYCARVGYGGNSDYWGQGTLVTVSS
VL: DIQMTQSPSSVSASVGDRLTIICRASQDINRWLAWYQQTPGNAPKLLIHSATTLQSGVPSRFSGSGSGTDFTLTINSLQPEDFATYYCQQADSFPLTFGGGTKVEIK
notes: Single light chain substitution; Fab in periplasmic extract; also called C5A (XPA23) S53T
IL-1β
  fold difference in affinity vs original: 0.95 fold

B2: XPA23 light chain D92P (Fab, V domains shown)
VH: B1 VH
VL: B1 VL with T53S, D92P
notes: Single light chain substitution; Fab in periplasmic extract; also called C5A (XPA23) D92P
IL-1β
  binding result: no binding

B3: XPA23 light chain D92G (Fab, V domains shown)
VH: B1 VH
VL: B1 VL with T53S, D92G
notes: Single light chain substitution; Fab in periplasmic extract; also called C5A (XPA23) D92G
IL-1β
  fold difference in affinity vs original: 0.26 fold

B4: XPA23 light chain D92T (Fab, V domains shown)
VH: B1 VH
VL: B1 VL with T53S, D92T
notes: Single light chain substitution; Fab in periplasmic extract; also called C5A (XPA23) D92T
IL-1β
  fold difference in affinity vs original: 0.34 fold

B5: XPA23 light chain A91T (Fab, V domains shown)
VH: B1 VH
VL: B1 VL with T53S, A91T
notes: Single light chain substitution; Fab in periplasmic extract; also called C5A (XPA23) A91T
IL-1β
  fold difference in affinity vs original: 0.67 fold

B6: XPA23 light chain D92I (Fab, V domains shown)
VH: B1 VH
VL: B1 VL with T53S, D92I
notes: Single light chain substitution; Fab in periplasmic extract; also called C5A (XPA23) D92I
IL-1β
  fold difference in affinity vs original: 0.33 fold

B7: XPA23 light chain D92V (Fab, V domains shown)
VH: B1 VH
VL: B1 VL with T53S, D92V
notes: Single light chain substitution; Fab in periplasmic extract; also called C5A (XPA23) D92V
IL-1β
  binding result: no binding

B8: XPA23 light chain A91L (Fab, V domains shown)
VH: B1 VH
VL: B1 VL with T53S, A91L
notes: Single light chain substitution; Fab in periplasmic extract; also called C5A (XPA23) A91L
IL-1β
  fold difference in affinity vs original: 0.39 fold

B9: XPA23 light chain D92L (Fab, V domains shown)
VH: B1 VH
VL: B1 VL with T53S, D92L
notes: Single light chain substitution; Fab in periplasmic extract; also called C5A (XPA23) D92L
IL-1β
  fold difference in affinity vs original: 0.14 fold

B10: XPA23 light chain D92A (Fab, V domains shown)
VH: B1 VH
VL: B1 VL with T53S, D92A
notes: Single light chain substitution; Fab in periplasmic extract; also called C5A (XPA23) D92A
IL-1β
  fold difference in affinity vs original: 0.4 fold

B11: XPA23 light chain A91P (Fab, V domains shown)
VH: B1 VH
VL: B1 VL with T53S, A91P
notes: Single light chain substitution; Fab in periplasmic extract; also called C5A (XPA23) A91P
IL-1β
  binding result: no binding

B12: XPA23 light chain A91G (Fab, V domains shown)
VH: B1 VH
VL: B1 VL with T53S, A91G
notes: Single light chain substitution; Fab in periplasmic extract; also called C5A (XPA23) A91G
IL-1β
  binding result: no binding

B13: XPA23 light chain A91I (Fab, V domains shown)
VH: B1 VH
VL: B1 VL with T53S, A91I
notes: Single light chain substitution; Fab in periplasmic extract; also called C5A (XPA23) A91I
IL-1β
  binding result: no binding

B14: XPA23 light chain A91V (Fab, V domains shown)
VH: B1 VH
VL: B1 VL with T53S, A91V
notes: Single light chain substitution; Fab in periplasmic extract; also called C5A (XPA23) A91V
IL-1β
  fold difference in affinity vs original: 0.51 fold

B15: ING-1 light chain Q55E (Fab, V domains shown)
VH: QIQLVQSGPELKKPGETVKISCKASGYTFTKYGMNWVKQAPGKGLKWMGWINTYTEEPTYGDDFKGRFAFSLETSASTANLQINNLKSEDTATYFCARFGSAVDYWGQGTSVTVSS
VL: DIVMTQAAFSNPVTLGTSGSISCRSSKSLLHSNGITYLYWYLQKPGQSPQLLIYEMSNLASGVPDRFSSSGSGTDFTLRISRVEAEDVGVYYCAQNLELPRTFGGGTKLEMKR
notes: Fab, periplasmic extract
Ep-CAM
  fold difference in affinity vs parental ING-1: 0.05 fold

B16: ING-1 light chain Y54R (Fab, V domains shown)
VH: B15 VH
VL: B15 VL with Y54R, E55Q
notes: Fab, periplasmic extract
Ep-CAM
  binding result: no binding

B17: ING-1 light chain Y54E (Fab, V domains shown)
VH: B15 VH
VL: B15 VL with Y54E, E55Q
notes: Fab, periplasmic extract
Ep-CAM
  fold difference in affinity vs parental ING-1: 0.05 fold

B18: ING-1 light chain Y37N (Fab, V domains shown)
VH: B15 VH
VL: B15 VL with Y37N, E55Q
notes: Fab, periplasmic extract
Ep-CAM
  fold difference in affinity vs parental ING-1: 0.06 fold

B19: ING-1 light chain Y37K (Fab, V domains shown)
VH: B15 VH
VL: B15 VL with Y37K, E55Q
notes: Fab, periplasmic extract
Ep-CAM
  fold difference in affinity vs parental ING-1: 0.02 fold

B20: ING-1 light chain T36D (Fab, V domains shown)
VH: B15 VH
VL: B15 VL with T36D, E55Q
notes: Fab, periplasmic extract
Ep-CAM
  fold difference in affinity vs parental ING-1: 0.05 fold

B21: ING-1 light chain R101F (Fab, V domains shown)
VH: B15 VH
VL: B15 VL with E55Q, R101F
notes: Fab, periplasmic extract
Ep-CAM
  binding result: no binding

B22: ING-1 light chain Y54D (Fab, V domains shown)
VH: B15 VH
VL: B15 VL with Y54D, E55Q
notes: Fab, periplasmic extract
Ep-CAM
  fold difference in affinity vs parental ING-1: 0.03 fold

B23: ING-1 light chain T36R (Fab, V domains shown)
VH: B15 VH
VL: B15 VL with T36R, E55Q
notes: Fab, periplasmic extract
Ep-CAM
  binding result: no binding

B24: ING-1 light chain R101Q (Fab, V domains shown)
VH: B15 VH
VL: B15 VL with E55Q, R101Q
notes: Fab, periplasmic extract
Ep-CAM
  binding result: no binding

B25: ING-1 light chain S28N (Fab, V domains shown)
VH: B15 VH
VL: B15 VL with S28N, E55Q
notes: Fab, periplasmic extract
Ep-CAM
  binding result: no binding

B26: ING-1 light chain Y37E (Fab, V domains shown)
VH: B15 VH
VL: B15 VL with Y37E, E55Q
notes: Fab, periplasmic extract
Ep-CAM
  fold difference in affinity vs parental ING-1: 0.01 fold

B27: ING-1 light chain R101N (Fab, V domains shown)
VH: B15 VH
VL: B15 VL with E55Q, R101N
notes: Fab, periplasmic extract
Ep-CAM
  binding result: no binding

B28: ING-1 light chain S57Q (Fab, V domains shown)
VH: B15 VH
VL: B15 VL with E55Q, S57Q
notes: Fab, periplasmic extract
Ep-CAM
  binding result: no binding

B29: ING-1 light chain R101Y (Fab, V domains shown)
VH: B15 VH
VL: B15 VL with E55Q, R101Y
notes: Fab, periplasmic extract
Ep-CAM
  binding result: no binding

B30: ING-1 light chain Y37Q (Fab, V domains shown)
VH: B15 VH
VL: B15 VL with Y37Q, E55Q
notes: Fab, periplasmic extract
Ep-CAM
  fold difference in affinity vs parental ING-1: 0.02 fold

B31: ING-1 light chain R101E (Fab, V domains shown)
VH: B15 VH
VL: B15 VL with E55Q, R101E
notes: Fab, periplasmic extract
Ep-CAM
  binding result: no binding

B32: ING-1 light chain R101K (Fab, V domains shown)
VH: B15 VH
VL: B15 VL with E55Q, R101K
notes: Fab, periplasmic extract
Ep-CAM
  fold difference in affinity vs parental ING-1: 0.04 fold

B33: ING-1 light chain R101D (Fab, V domains shown)
VH: B15 VH
VL: B15 VL with E55Q, R101D
notes: Fab, periplasmic extract
Ep-CAM
  binding result: no binding

B34: ING-1 light chain R101H (Fab, V domains shown)
VH: B15 VH
VL: B15 VL with E55Q, R101H
notes: Fab, periplasmic extract
Ep-CAM
  binding result: no binding

B35: ING-1 light chain Y54H (Fab, V domains shown)
VH: B15 VH
VL: B15 VL with Y54H, E55Q
notes: Fab, periplasmic extract
Ep-CAM
  binding result: no binding

B36: ING-1 light chain S57Y (Fab, V domains shown)
VH: B15 VH
VL: B15 VL with E55Q, S57Y
notes: Fab, periplasmic extract
Ep-CAM
  binding result: no binding

B37: ING-1 light chain Y37S (Fab, V domains shown)
VH: B15 VH
VL: B15 VL with Y37S, E55Q
notes: Fab, periplasmic extract
Ep-CAM
  fold difference in affinity vs parental ING-1: 0.09 fold

B38: ING-1 light chain Y54N (Fab, V domains shown)
VH: B15 VH
VL: B15 VL with Y54N, E55Q
notes: Fab, periplasmic extract
Ep-CAM
  binding result: no binding

B39: ING-1 light chain Y54S (Fab, V domains shown)
VH: B15 VH
VL: B15 VL with Y54S, E55Q
notes: Fab, periplasmic extract
Ep-CAM
  fold difference in affinity vs parental ING-1: 0.9 fold

B40: ING-1 light chain S32N (Fab, V domains shown)
VH: B15 VH
VL: B15 VL with S32N, E55Q
notes: Fab, periplasmic extract
Ep-CAM
  binding result: no binding

B41: ING-1 light chain R101W (Fab, V domains shown)
VH: B15 VH
VL: B15 VL with E55Q, R101W
notes: Fab, periplasmic extract
Ep-CAM
  binding result: no binding

B42: ING-1 light chain R101S (Fab, V domains shown)
VH: B15 VH
VL: B15 VL with E55Q, R101S
notes: Fab, periplasmic extract
Ep-CAM
  binding result: no binding
